# Laboratory results: PMC3466315, “Influence of PAS Domain Flanking Regions on Oligomerisation and Redox Signalling By NifL” (PLoS ONE, 2012)
# B1: NifL PAS1 domain construct, residues 21-140 (domain or fragment, Azotobacter vinelandii, UniProt P30663 21-140, looked up)
# chain: ELLPEIFRQTVEHAPIAISITDLKANILYANRAFRTITGYGSEEVLGKNESILSNGTTPRLVYQALWGRLAQKKPWSGVLVNRRKDKTLYLAELTVAPVLNEAGETIYYLGMHRDTSELH
# notes: NifL, Azotobacter vinelandii, residues 21-140; also called construct lacking the entire N-terminal extension; source: E. coli BL21(DE3)pLysS, purified; not shown: hexa-histidine-containing tag (26 additional residues, from the vector pETNdeM-11), N-terminal, kept
# B2: NifL(1-162) ΔL151 (domain or fragment, Azotobacter vinelandii, UniProt P30663 1-162, looked up)
# chain: MTPANPTLSNEPQAPHAESDELLPEIFRQTVEHAPIAISITDLKANILYANRAFRTITGYGSEEVLGKNESILSNGTTPRLVYQALWGRLAQKKPWSGVLVNRRKDKTLYLAELTVAPVLNEAGETIYYLGMHRDTSELHELEQRVNNQRMIEAVVNAAPA
# notes: NifL, Azotobacter vinelandii, residues 1-162 with L151 of the linker helix deleted; source: E. coli BL21(DE3)pLysS, purified
# B3: NifL PAS1 domain construct, residues 1-140 (domain or fragment, Azotobacter vinelandii, UniProt P30663 1-140, looked up)
# chain: MTPANPTLSNEPQAPHAESDELLPEIFRQTVEHAPIAISITDLKANILYANRAFRTITGYGSEEVLGKNESILSNGTTPRLVYQALWGRLAQKKPWSGVLVNRRKDKTLYLAELTVAPVLNEAGETIYYLGMHRDTSELH
# notes: NifL, Azotobacter vinelandii, residues 1-140 (PAS1 domain with the N-terminal flanking region, without the C-terminal linker helix); PAS1 carries an FAD cofactor; also called NifL(1-140); 1-140 PAS1 domain construct; source: E. coli BL21(DE3)pLysS, purified; not shown: hexa-histidine-containing tag (26 additional residues, from the vector pETNdeM-11), N-terminal, kept
# B4: NifL(1-162) ΔR150-L151 (domain or fragment, Azotobacter vinelandii, UniProt P30663 1-162, looked up)
# chain: MTPANPTLSNEPQAPHAESDELLPEIFRQTVEHAPIAISITDLKANILYANRAFRTITGYGSEEVLGKNESILSNGTTPRLVYQALWGRLAQKKPWSGVLVNRRKDKTLYLAELTVAPVLNEAGETIYYLGMHRDTSELHELEQRVNNQMIEAVVNAAPA
# notes: NifL, Azotobacter vinelandii, residues 1-162 with R150-L151 of the linker helix deleted; source: E. coli BL21(DE3)pLysS, purified
# B5: NifL 1-162 PAS1 construct after removal of the first 20 residues (domain or fragment, Azotobacter vinelandii, UniProt P30663 21-162, looked up)
# chain: ELLPEIFRQTVEHAPIAISITDLKANILYANRAFRTITGYGSEEVLGKNESILSNGTTPRLVYQALWGRLAQKKPWSGVLVNRRKDKTLYLAELTVAPVLNEAGETIYYLGMHRDTSELHELEQRVNNQRLMIEAVVNAAPA
# notes: NifL, Azotobacter vinelandii; the 1-162 construct without its first 20 residues; The limits are worked out from 'removal of the first 20 residues' of the 1-162 construct; source: E. coli BL21(DE3)pLysS, purified
# B6: NifL(1-162) ΔN147-L151 (domain or fragment, Azotobacter vinelandii, UniProt P30663 1-162, looked up)
# chain: MTPANPTLSNEPQAPHAESDELLPEIFRQTVEHAPIAISITDLKANILYANRAFRTITGYGSEEVLGKNESILSNGTTPRLVYQALWGRLAQKKPWSGVLVNRRKDKTLYLAELTVAPVLNEAGETIYYLGMHRDTSELHELEQRVMIEAVVNAAPA
# notes: NifL, Azotobacter vinelandii, residues 1-162 with N147-L151 of the linker helix deleted; also called construct lacking residues N147-L151; source: E. coli BL21(DE3)pLysS, purified
# B7: NifL PAS1 construct with the N-terminal region and the C-terminal linker helix, residues 1-162 (domain or fragment, Azotobacter vinelandii, UniProt P30663 1-162, looked up)
# chain: MTPANPTLSNEPQAPHAESDELLPEIFRQTVEHAPIAISITDLKANILYANRAFRTITGYGSEEVLGKNESILSNGTTPRLVYQALWGRLAQKKPWSGVLVNRRKDKTLYLAELTVAPVLNEAGETIYYLGMHRDTSELHELEQRVNNQRLMIEAVVNAAPA
# notes: NifL, Azotobacter vinelandii, residues 1-162 (PAS1 with both flanking regions); PAS1 carries an FAD cofactor; also called NifL(1-162); 1-162 construct; source: E. coli BL21(DE3)pLysS, purified
# Experiments:
# [1] = molecular target: the molecule itself; test: SEC; Superose 12 10/300 GL, 0.5 ml/min, 50 mM Tris-HCl, 10% v/v glycerol, 200 mM NaCl, pH 8.0; protein at 106 µM (in monomeric terms); 1-140 constructs; self-association
# [2] = molecular target: the molecule itself; test: SEC; Superose 12 10/300 GL, 0.5 ml/min, 50 mM Tris-HCl, 10% v/v glycerol, 200 mM NaCl, pH 8.0; 1-162 constructs at five different protein concentrations; self-association, dimer-tetramer equilibrium
# [3] = molecular target: the molecule itself; test: SEC; Superose 12 10/300 GL, 0.5 ml/min, 50 mM Tris-HCl, 10% v/v glycerol, 200 mM NaCl, pH 8.0; 1-162 constructs of Table S1, protein concentration not given; self-association
# [4] = molecular target: the molecule itself; test: SEC; Superose 12 10/300 GL, 0.5 ml/min, 50 mM Tris-HCl, 10% v/v glycerol, 200 mM NaCl, pH 8.0; 1-162 constructs at the highest injected concentration, 424 µM; self-association
protein,measurement,setting,value
B1,stoichiometry N,[1],2
B2,binding result,[2],binds
B3,stoichiometry N,[1],~4
B4,binding result,[2],binds
B5,stoichiometry N,[3],2
B6,stoichiometry N,[4],3.6 monomers
B7,stoichiometry N,[2],~2
same,stoichiometry N,[4],2.8 monomers
same,stoichiometry N,[3],2.5 monomers
